Data published in article PMC6292215 (Cell reports, 2018).

Molecular target: T1, full-length Human recombinant CHERP with an N-terminal HIS (human, UniProt Q8IWX8 1-916)
T1 sequence: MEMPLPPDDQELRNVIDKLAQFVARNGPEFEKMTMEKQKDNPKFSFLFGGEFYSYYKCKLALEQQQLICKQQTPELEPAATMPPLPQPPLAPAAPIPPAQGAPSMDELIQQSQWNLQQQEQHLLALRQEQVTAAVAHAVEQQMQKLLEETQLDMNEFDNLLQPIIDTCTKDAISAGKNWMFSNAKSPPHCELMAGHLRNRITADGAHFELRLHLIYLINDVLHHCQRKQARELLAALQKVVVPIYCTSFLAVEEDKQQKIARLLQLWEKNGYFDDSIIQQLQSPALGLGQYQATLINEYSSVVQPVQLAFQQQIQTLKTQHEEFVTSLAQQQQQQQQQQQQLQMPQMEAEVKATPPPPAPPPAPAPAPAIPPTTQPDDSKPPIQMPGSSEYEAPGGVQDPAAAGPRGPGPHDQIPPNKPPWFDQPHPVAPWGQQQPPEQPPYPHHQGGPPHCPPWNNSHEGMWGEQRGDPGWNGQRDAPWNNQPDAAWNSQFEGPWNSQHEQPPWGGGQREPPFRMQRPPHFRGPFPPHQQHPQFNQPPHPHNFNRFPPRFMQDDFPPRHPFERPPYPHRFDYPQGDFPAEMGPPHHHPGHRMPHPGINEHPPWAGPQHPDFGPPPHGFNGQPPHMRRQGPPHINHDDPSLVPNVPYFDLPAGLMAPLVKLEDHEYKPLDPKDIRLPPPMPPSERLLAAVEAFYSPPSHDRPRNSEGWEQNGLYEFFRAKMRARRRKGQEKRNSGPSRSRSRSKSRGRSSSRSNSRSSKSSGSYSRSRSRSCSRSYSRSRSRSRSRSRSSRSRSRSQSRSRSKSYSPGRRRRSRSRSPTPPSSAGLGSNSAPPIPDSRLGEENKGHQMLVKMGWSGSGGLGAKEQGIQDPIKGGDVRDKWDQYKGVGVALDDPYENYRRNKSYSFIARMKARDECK
Assay: pull-down

B1: Full-length Human RBM17 recombinant protein with an N-terminal GST tag (natural protein)
chain: MSLYDDLGVETSDSKTEGWSKNFKLLQSQLQVKKAALTQAKSQRTKQSTVLAPVIDLKRGGSSDDRQIVDTPPHVAAGLKDPVPSGFSAGEVLIPLADEYDPMFPNDYEKVVKRQREERQRQRELERQKEIEEREKRRKDRHEASGFARRPDPDSDEDEDYERERRKRSMGGAAIAPPTSLVEKDKELPRDFPYEEDSRPRSQSSKAAIPPPVYEEQDRPRSPTGPSNSFLANMGGTVAHKIMQKYGFREGQGLGKHEQGLSTALSVEKTSKRGGKIIVGDATEKDASKKSDSNPLTEILKCPTKVVLLRNMVGAGEVDEDLEVETKEECEKYGKVGKCVIFEIPGAPDDEAVRIFLEFERVESAIKAVVDLNGRYFGGRVVKACFYNLDKFRVLDLAEQV
B1: binds.
